From patent US5972698
Like-named read-outs stand apart in the source and are kept apart here.

What was measured:
[1] = biological target: human tryptase (purified from human lung tissue) (human) (UniProt Q15661); test: enzyme inhibition, tos-Gly-Pro-Arg-pNa as substrate
[2] = biological target: human tryptase (purified from human lung tissue) (human) (UniProt Q15661)
[3] = biological target: bovine trypsin (bovine) (UniProt P00760)
Target sequence in this assay (P00760 24-246): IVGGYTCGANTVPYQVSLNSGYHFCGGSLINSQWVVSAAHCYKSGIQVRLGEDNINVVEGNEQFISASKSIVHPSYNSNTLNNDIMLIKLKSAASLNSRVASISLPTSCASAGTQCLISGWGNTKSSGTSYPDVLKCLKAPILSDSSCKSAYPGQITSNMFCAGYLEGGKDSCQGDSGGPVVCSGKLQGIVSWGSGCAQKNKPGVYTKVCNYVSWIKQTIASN

[4] = biological target: bovine chymotrypsin (bovine) (UniProt P00766); test: enzyme inhibition, steady state velocities on Suc-Val-Pro-Phe-pNA, tight binding fit
[5] = biological target: human plasmin (human) (UniProt P00747)
[6] = biological target: human thrombin (human) (UniProt P00734)
[7] = biological target: porcine pancreatic kallikrein (porcine) (UniProt P00752)
[8] = biological target: human cathepsin G (human) (UniProt P08311)
[9] = biological target: human tryptase (purified from human lung tissue) (human) (UniProt Q15661); remark: listed apart in the source
[10] = biological target: bovine trypsin (bovine) (UniProt P00760); test: enzyme inhibition, steady state velocities on Tos-Gly-Pro-Arg-pNA, tight binding fit
[11] = biological target: human tryptase (purified from human lung tissue) (human) (UniProt Q15661); test: as above
[12] = biological target: porcine pancreatic elastase (porcine) (UniProt P00772); test: enzyme inhibition at 0.2 µM inhibitor, Table 5
[13] = biological target: human plasma kallikrein (human) (UniProt P03952); test: enzyme inhibition at 0.2 µM inhibitor, Table 5
[14] = biological target: human plasmin (human) (UniProt P00747); test: enzyme inhibition at 0.2 µM inhibitor, Table 5
[15] = biological target: human thrombin (human) (UniProt P00734); test: enzyme inhibition at 0.2 µM inhibitor, Table 5
[16] = biological target: human urokinase (human) (UniProt P00749); test: enzyme inhibition at 0.2 µM inhibitor, Table 5
[17] = biological target: porcine pancreatic kallikrein (porcine) (UniProt P00752); test: enzyme inhibition at 0.2 µM inhibitor, Table 5
[18] = biological target: human neutrophil elastase (human) (UniProt P08246); test: enzyme inhibition at 0.2 µM inhibitor, Table 5
[19] = biological target: human cathepsin G (human) (UniProt P08311); test: enzyme inhibition at 0.2 µM inhibitor, Table 5
[20] = biological target: human factor Xa (human) (UniProt P00742); test: enzyme inhibition at 0.2 µM inhibitor, Table 5
[21] = biological target: human tryptase (purified from human lung tissue) (human) (UniProt Q15661); test: enzyme inhibition, steady state velocities on Tos-Gly-Pro-Arg-pNA, tight binding fit; Ki for the inhibition of two of the four subunits of the tryptase-tetramer
[22] = biological target: human tryptase (purified from human lung tissue) (human) (UniProt Q15661); remark: listed apart in the source
[23] = biological target: human tryptase (purified from human lung tissue) (human) (UniProt Q15661); remark: listed apart in the source

Chain of recombinant leech-derived tryptase inhibitor form C, secreted by Saccharomyces cerevisiae (strain S-78 with pRM 9.1.4) (chain): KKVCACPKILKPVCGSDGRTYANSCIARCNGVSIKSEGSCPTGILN

A Ki [1] of 1.9 nM, an amidolytic activity of tryptase on tos-Gly-Pro-Arg-pNa [2] of 50% and a trypsin inhibition assay (residual trypsin activity on Tos-Gly-Pro-Arg-p-NA) [3] of 60% were found for “recombinant leech-derived tryptase inhibitor form C, secreted by Saccharomyces cerevisiae (strain S-78 with pRM 9.1.4)” in this work.

A Ki [4] of 20 nM, a Ki [nM], first of the two columns so headed [4] of 137 nM and an amidolytic activity of plasmin on Tos-Gly-Pro-Lys-pNA, inhibitor at 0.2 µM [5] of 30% were found for “leech-derived tryptase inhibitor (isolated from extract of the medical leech Hirudo medicinalis)” in this work. It also gave an amidolytic activity of thrombin on Tos-Gly-Pro-Arg-pNA, inhibitor at 0.2 µM [6] of 12%, an amidolytic activity of tissue kallikrein on D-Val-Leu-Arg-pNA, inhibitor at 0.2 µM [7] of 14% and an amidolytic activity of cathepsin G on Suc-Val-Pro-Phe-pNA, inhibitor at 0.2 µM [8] of 11%. For the same substance, the tryptase-induced growth of HaCaT keratinocytes (3H-thymidine incorporation) [9] was 99%, the Ki [10] was 0.9 nM and the Ki [nM], first of the two columns so headed [10] was 4.7 nM. The Ki [nM], first of the two columns so headed [11] was 1.8 nM, the Ki relative to the complex with tryptase (times higher) [12] was greater than 200 times and the Ki relative to the complex with tryptase (times higher) [13] was greater than 200 times. For the same substance, the Ki relative to the complex with tryptase (times higher) [14] was greater than 200 times, the Ki relative to the complex with tryptase (times higher) [15] was greater than 200 times and the Ki relative to the complex with tryptase (times higher) [16] was greater than 200 times. The Ki relative to the complex with tryptase (times higher) [17] was greater than 200 times, the Ki relative to the complex with tryptase (times higher) [18] was greater than 200 times and the Ki relative to the complex with tryptase (times higher) [19] was greater than 200 times. It also gave a Ki relative to the complex with tryptase (times higher) [20] greater than 200 times, a Ki [21] of 1.4 nM and a tryptase-induced breakdown of vasoactive intestinal peptide (VIP), reversed phase HPLC [22] of 66%. It also gave an amidolytic activity of tryptase on tos-Gly-Pro-Arg-pNa [23] of 50%.
